Measurements published in publication PMC9097366 (Cell reports, 2022).
Numbering of substitutions follows the chain as printed.

B1: S. cerevisiae Atg23 FL (recombinant, purified) (natural protein, UniProt Q06671 1-453, looked up)
chain: MELNQVLEKKEQILQYLGTLVGLHEKALSDVNSASQVTSIRKDITICLNDLCRINDLLVSHDGLLKREIGSLLRDKQELLELNEREQLLWKERKSWHIKQETDAAPADYVIDKDAIITISSHHRTSLNKYIESVGAENTILSNTDDSDAMIEEVQNAESSADQMIRNYKLLQLSHKQAKSEIIRLETLLRDFKKDNKFIEEELKRQSGRIRSEMGNIDFHLSKIEESKHQLMKRIGFESPLTQEKSLSEKIFNLRLSSADEDYNERQTINMKNFVHMKDLIELKIEDLQEQLMRNKNESSTVLTQRELWLDCQKKVGDLESKLITKLRSSSNSKIPPNEMSEMINSTIQYLNNLLDSSDEKLTTTLISNERDVLSKACEELHSESTTAQDGSSALPSKPIDIHKSHKGSNASSNLKQPSTPSFLVASKSPPKIGISESVVNANKNDAISKKVE
B2: Atg23 M3 (recombinant, purified) (natural protein, S. cerevisiae, UniProt Q06671 1-453, looked up)
chain: B1 chain with K66E, R67E
B3: Atg23 M4 (recombinant, purified) (natural protein, S. cerevisiae, UniProt Q06671 1-453, looked up)
chain: B1 chain with K66E, R67E, K296E
B4: Atg23 M5 (recombinant, purified) (natural protein, S. cerevisiae, UniProt Q06671 1-453, looked up)
chain: B1 chain with K66E, R67E, R74E, R85E, K296E

Target: the molecule itself
Test: AUC

Row | Protein | stoichiometry N
1 | B1 | 2
2 | B2 | 2
3 | B3 | 2
4 | B4 | 2
